Laboratory results taken from article PMC2764420.
Like-named read-outs stand apart in the source and are kept apart here.

Columns and labels:
[1] = target: Tn10 transposase; assay: cross-linking
[2] = target: Tn10 transposase; assay: cross-linking; remark: listed apart in the source
[3] = target: pre-unfolded Tn10 transpososome; assay: native gel or EMSA
[4] = target: folded Tn10 transpososome (UniProt P0A6X7); assay: native gel or EMSA
Sequence of UniProt P0A6X7 (P0A6X7 whole entry, looked up): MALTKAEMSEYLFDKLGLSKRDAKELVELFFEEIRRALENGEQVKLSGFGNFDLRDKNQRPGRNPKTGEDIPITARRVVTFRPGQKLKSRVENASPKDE

Molecule | stoichiometry N [1] | stoichiometry N [2] | Kd [3] [nM] | percent of transpososome converted to an H-NS-bound form [3] [%] | percent of transpososome converted to an H-NS form at 6 nM H-NS [4] [%]
Tn10 transposase (enzyme) | 2 | 2 |  |  | 
H-NS (histone-like nucleoid-structuring protein), wild type (natural protein) MSEALKILNNIRTLRAQARECTLETLEEMLEKLEVVVNERREEESAAAAEVEERTRKLQQYREMLIADGIDPNELLNSLAAVKSGTKAKRAQRPAKYSYVDENGETKTWTGQGRTPAVIKKAMDEQGKSLDDFLIKQ |  |  | 0.3 | > 95 | 5
